Results taken from publication PMC2365708, “Binding of MutS protein to oligonucleotides containing a methylated or an ethylated guanine residue, and correlation with mutation frequency”.

Biological target: T1, MutS (Escherichia coli, UniProt P23909 1-853)
T1 sequence: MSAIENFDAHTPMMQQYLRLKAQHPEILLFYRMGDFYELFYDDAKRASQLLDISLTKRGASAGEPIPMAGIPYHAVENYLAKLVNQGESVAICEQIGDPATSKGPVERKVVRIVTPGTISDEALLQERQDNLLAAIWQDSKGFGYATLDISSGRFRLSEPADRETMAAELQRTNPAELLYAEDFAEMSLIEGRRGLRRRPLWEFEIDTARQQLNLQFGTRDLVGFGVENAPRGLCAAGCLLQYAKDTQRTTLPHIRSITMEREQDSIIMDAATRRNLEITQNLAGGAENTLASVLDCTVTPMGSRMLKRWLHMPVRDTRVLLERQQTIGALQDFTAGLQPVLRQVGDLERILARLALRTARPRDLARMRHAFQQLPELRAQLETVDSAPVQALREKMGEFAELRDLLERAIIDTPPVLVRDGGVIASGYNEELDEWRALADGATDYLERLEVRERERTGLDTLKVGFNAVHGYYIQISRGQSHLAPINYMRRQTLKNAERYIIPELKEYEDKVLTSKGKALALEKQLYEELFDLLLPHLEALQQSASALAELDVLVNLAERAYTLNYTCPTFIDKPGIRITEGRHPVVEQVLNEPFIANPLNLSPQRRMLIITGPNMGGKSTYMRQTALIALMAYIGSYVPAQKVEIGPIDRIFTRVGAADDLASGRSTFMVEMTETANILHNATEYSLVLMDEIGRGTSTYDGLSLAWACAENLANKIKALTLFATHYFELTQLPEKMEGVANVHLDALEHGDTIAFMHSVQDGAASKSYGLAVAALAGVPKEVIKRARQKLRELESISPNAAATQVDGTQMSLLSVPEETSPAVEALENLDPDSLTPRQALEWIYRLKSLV
Experiment: EMSA; 5 mM Mg2+; 20 pmol unlabeled GC duplex; 20 mM Tris-HCl pH 7.6, 50 mM KCl, 5 mM MgCl2, 1 mM DTT, 0.05 mg/ml BSA, 37 °C 15 min, 20 μl, 2 pmol labeled duplex, 20 pmol unlabeled GC duplex, 5% native PAGE
Details: protein: recombinant, tags: His6, chain copies: 2, label: 5'-32P (KN-2 or KN-3 strand)

B1: O6-EtG:T duplex (dsDNA)
DNA 1: GGTCGCTGGGGAATGGGAGTGGCCACGGCG
DNA 2: CGCCGTGGCCACTCTCATTCCCCAGCGACC
modifications: O6-ethylguanine opposite T
Q: For B1, which Kd (O6-EtG:T pair) is on record?
A: The Kd was 210 nM.

B2: O6-MeG:C duplex (dsDNA)
DNA 1: GGTCGCTGGGGAATGGGAGTGGCCACGGCG
DNA 2: CGCCGTGGCCACTCCCATTCCCCAGCGACC
modifications: O6-methylguanine opposite C
Q: How did the Kd (O6-MeG:C pair) turn out when B2 was run?
A: The Kd was 220 nM.

B3: O6-MeG:T duplex (dsDNA)
DNA 1: GGTCGCTGGGGAATGGGAGTGGCCACGGCG
DNA 2: CGCCGTGGCCACTCTCATTCCCCAGCGACC
modifications: O6-methylguanine opposite T
Q: B3 was tested. Which Kd (O6-MeG:T pair) did it give?
A: The Kd was 120 nM.

B4: O6-EtG:C duplex (dsDNA)
DNA 1: GGTCGCTGGGGAATGGGAGTGGCCACGGCG
DNA 2: CGCCGTGGCCACTCCCATTCCCCAGCGACC
modifications: O6-ethylguanine opposite C
Q: For B4, which Kd (O6-EtG:C pair) is on record?
A: The Kd was 220 nM.

B5: G:T duplex (dsDNA)
DNA 1: GGTCGCTGGGGAATGGGAGTGGCCACGGCG
DNA 2: CGCCGTGGCCACTCTCATTCCCCAGCGACC
Q: With B5 as the binder, how does the Kd (G:T mismatch) read?
A: The Kd was 75 nM.
